In one test the target is T1, PD-1 biotin (UniProt Q15116 25-167, limits assumed, biotin (site not stated)).
T1 construct: also called biotinylated PD-1
Kind of test: PD-1/PD-L1 blocking ELISA, interpolated on a standard curve of a PD-1 neutralizing antibody. How it is done: The ability of disclosed PD-1 antibodies to block the PD-1/PD-L1 interaction was assessed using an ELISA based assay.
Briefly, human PD-L1 was immobilized on 96 well ELISA plates. Plates were washed and blocked for 1.5 hours at 37° C. with block buffer. Plates were washed and test PD-1 antibodies, isotype controls, or a standard curve of PD-1 neutralizing antibody were added to the coated plate and incubated for 1 hour at 37° C. […] Following washing, streptavidin-HRP was added to the plate and the plate was incubated at 37° C. for 1 hour. After a final wash, antibody binding was detected colorimetrically by adding a subrate solution and incubating for 20 minutes protected from light before adding stop solution. Absorbance at 450 nm was measured on a plate reader (PerkinElmer). Data was analyzed using GraphPad Prism.
Percent blocking of tested PD-1 antibodies was determined by interpolating values obtained from each sample against the standard control curve (see FIG. 1) and summarized in Table 4.

For test [1], the target named is T2, CD28 extracellular domain (PD-1 family member) (UniProt P10747 19-152, limits assumed).
T2 construct: extracellular domain; not shown: His tag
T2 sequence (P10747 19-152 limits assumed): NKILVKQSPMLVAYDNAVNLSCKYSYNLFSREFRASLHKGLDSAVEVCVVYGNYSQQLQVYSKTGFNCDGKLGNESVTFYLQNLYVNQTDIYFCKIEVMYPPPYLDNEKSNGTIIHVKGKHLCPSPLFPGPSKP
Kind of test: ELISA, His-tagged extracellular domain on plate. How it is done: (§1) His-tagged extracellular domains of human PD-1, cynomolgus PD-1, and PD-1 family members ICOS, CD28, and CTLA-4 extracellular domains were immobilized on 96 well ELISA plates. Plates were washed with PBST (phosphate buffered saline+0.05% Tween 20) and blocked for 1 hour with 1% BSA in PBS. Following washing with PBST, test PD-1 antibodies were added to the coated plate and incubated for 2 hours at room temperature. Plates were washed and incubated with HRP-conjugated goat anti-human IgG secondary antibody for 1 hour at room temperature. Following washing, antibody binding was detected colorimetrically by adding 3,3′,5,5′-tetramethylbenzidine (TMB) and incubated at room temperature for 10-20 minutes before adding 2.5N sulfuric acid stopping solution. Absorbance at 450 nm was measured on a plate reader (PerkinElmer). Data was analyzed using Graph-Pad Prism.

In test [2] the target is T3, ICOS extracellular domain (PD-1 family member) (UniProt Q9Y6W8 21-140, limits assumed).
T3 construct: extracellular domain; not shown: His tag
T3 sequence (looked up): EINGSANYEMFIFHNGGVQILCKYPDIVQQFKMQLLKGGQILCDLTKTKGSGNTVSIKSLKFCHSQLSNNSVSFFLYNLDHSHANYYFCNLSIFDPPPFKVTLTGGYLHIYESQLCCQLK
As to the kind of experiment: ELISA, His-tagged extracellular domain on plate. As to the method: as §1

The target in test [3] is T4, CTLA-4 extracellular domain (PD-1 family member) (UniProt P16410 36-161, limits assumed).
T4 construct: extracellular domain; not shown: His tag
T4 sequence (looked up): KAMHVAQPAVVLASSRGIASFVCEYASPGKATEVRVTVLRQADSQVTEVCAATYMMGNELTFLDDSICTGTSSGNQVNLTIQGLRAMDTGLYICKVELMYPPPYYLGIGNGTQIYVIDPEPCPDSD
Kind of test: ELISA, His-tagged extracellular domain on plate. As to the method:
as §1

T1 sequence (Q15116 25-167 limits assumed): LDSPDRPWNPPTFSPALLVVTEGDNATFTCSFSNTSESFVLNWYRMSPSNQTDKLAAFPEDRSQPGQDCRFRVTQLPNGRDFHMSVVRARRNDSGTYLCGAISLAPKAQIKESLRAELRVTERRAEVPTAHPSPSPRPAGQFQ

B1: PD-1 antibody 3H4 (antibody, V domains shown)
VH: QIQLQQSGPELVKPGASVKISCKASGYTFTDYYINWVKQKPGQGLEWIGWIYPGSVNTKYNEKFRGKATLTVDTSSSTAYIQLSGLTSEDTAVYFCARYSNWFFDVWGAGTAVTVS
VL: DIVMTQSPSSLSASLGERVSLTCRASQEISGYLSWLQQKPDGTIKRLIYAASTLDSGVPKRFSGSRSGSDYSLSISSLESEDFADYYCLQYASYPYTFGGGTKLEIKR
notes: detection used an anti-human IgG secondary antibody; also called Murine 3H4
For the molecule B1, the “Percent Blocking” value with PD-1 biotin turned out to be 46 percent. The binding result in test [1], in test [2] and in test [3] was “no binding” each time.

B2: PD-1 antibody 2.3A9 (antibody, V domains shown)
VH: QVQLQQSDAELVKPGTSVKISCKASGYTFTDHAIHWLKQEPDQGLEWIGYISPGYGDIEYNEKFKGKATLTADKSSSTAYMQLSSLTSEDSAVYFCKVTTGYWGQGTTLTVS
VL: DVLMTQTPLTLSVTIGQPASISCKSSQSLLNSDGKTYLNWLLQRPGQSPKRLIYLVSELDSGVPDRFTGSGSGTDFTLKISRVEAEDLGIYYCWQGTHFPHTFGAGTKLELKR
notes: detection used an anti-human IgG secondary antibody; also called Murine 2.3A9
For B2, the “Percent Blocking” value with PD-1 biotin is 0 percent. Moreover, the binding result in test [1], in test [2] and in test [3] was “no binding” in each case.

B3: PD-1 antibody 20B3.1 (antibody, V domains shown)
VH: EVKLVESGGGLVKPGGSLKLSCAASGFTFSSFGMSWVRQTPEKRLEWVATISGGGSNTYYPDSVKGRFTISRDNAKNNLYLQMTSLTSEDTALYYCTRIYDVAWFAYWGQGTLVTVS
VL: not shown
notes: detection used an anti-human IgG secondary antibody; also called Murine 20B3.1
For B3, in the test with PD-1 biotin, the “Percent Blocking” value stood at 94 percent. The binding result in test [1], in test [2] and in test [3] was “no binding” in each case.

B4: PD-1 antibody 1-33 (antibody, V domains shown)
VH: QVQLVQSGAEVKKPGASVRVSCKASGYTLTSYYIHWVRQAPGQGLEWMGIINPRGATISYAQKFQGRVTMTRDTSTSTVYMELRNLKSEDTALYYCATAGIYGFDFDYWGRGTLVTVSS
VL: QSALTQPASVSGSPGQSITISCTGTSNDVGGYNYVSWYQHHPGKAPKLIIYDVTNRPSGVSDRFSGSKSGNTASLTISGLLAEDEGDYYCSSYTIVTNFEVLFGGGTKLTV
notes: detection used an anti-human IgG secondary antibody
In the case of B4, the “Percent Blocking” value with PD-1 biotin is 68 percent. Besides, the binding result in test [1], in test [2] and in test [3] was “no binding” in each case.

B5: PD-1 antibody 1-35 (antibody, V domains shown)
VH: QVQLQESGPGLVKPSQTLSLTCTVSGGSISSGAYYWSWIRQHPGKGLEWIGYIYYNGNTYYNPSLRSLVTISVDASKNQFSLKLSSVTAADTAVYYCARASDYVWGGYRYMDAFDIWGRGTLITVSS
VL: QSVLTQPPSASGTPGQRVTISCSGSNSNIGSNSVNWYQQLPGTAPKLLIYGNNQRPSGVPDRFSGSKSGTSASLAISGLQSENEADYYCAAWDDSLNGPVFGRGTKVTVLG
notes: as for B4
On to B5, for which the “Percent Blocking” value with PD-1 biotin was 58 percent. For the same molecule, the binding result in test [1], in test [2] and in test [3] was “no binding” in each case.

B6: PD-1 antibody 1B8 (antibody, V domains shown)
VH: EVQLVLSGGGFVQPGGSLKLSCAASGFTFSSYAMSWVRQNPERRLVWVATITGGGRNTYYPDSVKGRFTISRDNAKNTLYLQMSSLRSEDTAMYYCTRQGYDGYTWFAYWGQGTLVTVS
VL: not shown
notes: detection used an anti-human IgG secondary antibody; also called Murine 1B8
As for B6, in the test with PD-1 biotin, the “Percent Blocking” value was 90 percent. For the same molecule, the binding result in test [1], in test [2] and in test [3] was “no binding” in each case.

B7: PD-1 antibody 1-28 (antibody, V domains shown)
VH: EVQLVQSGAEVKKPGASVKVSCKASGYRFTSYGISWVRQAPGQGLEWMGWISAYNGNTNYAQKLQGRVTMTTDTSTNTAYMELRSLRSDDTAVYYCARDADYSSGSGYWGQGTLVTVSS
VL: SYELTQPPSVSVSPGQTARITCSGDALPKQYAYWYQQKPGQAPVMVIYKDTERPSGIPERFSGSSSGTKVTLTISGVQAEDEADYYCQSADNSITYRVFGGGTKVTVL
notes: as for B4
Consider B7, for which, in the test with PD-1 biotin, the “Percent Blocking” value is 87 percent. Besides, the binding result in test [1], in test [2] and in test [3] was “no binding” each time.

B8: PD-1 antibody 1-17 (antibody, V domains shown)
VH: QVQLQESGPGVVKPSGTLSLTCAISGGSIGSGGSIRSTRWWSWVRQSPGKGLEWIGEIYHSGSTNYNPSLKSRVTISLDKSRNHFSLRLNSVTAADTAVYYCARQDYGDSGDWYFDLWGKGTMVTVSS
VL: NFMLTQPHSVSESPGKTVTISCTRSSGSIASNSVQWYQQRPGSSPTTVIYEDNQRPSGVPDRFSGSIDSSSNSASLTVSGLKTEDEADYYCQSSDSSAVVFGSGTKLTVL
notes: as for B4
Take B8: the “Percent Blocking” value in the test with PD-1 biotin came out at 7 percent. Also, the binding result in test [1], in test [2] and in test [3] was “no binding” in each case.

(Values after patent publication US20260055187A1 (SANTA ANA BIO, published 2026).)
